US20260351346 (published 2026)

Molecular target: TNFRSF9 (CD137) (human)
Experiment: ELISA

TNFRSF9 (CD137) (human), sequence (chain, as listed by the source): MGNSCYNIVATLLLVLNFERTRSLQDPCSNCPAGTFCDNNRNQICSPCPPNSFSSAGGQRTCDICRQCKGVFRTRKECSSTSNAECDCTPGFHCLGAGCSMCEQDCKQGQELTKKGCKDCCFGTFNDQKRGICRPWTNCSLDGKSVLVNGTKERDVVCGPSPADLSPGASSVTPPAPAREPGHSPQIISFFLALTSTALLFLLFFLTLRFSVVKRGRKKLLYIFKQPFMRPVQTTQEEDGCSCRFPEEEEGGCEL

| EC50 [ng/mL] | Binder |
| --- | --- |
| 2.46 | 4C2-Candi4 (antibody, V domains shown) VH: EVQLEESGGGVVQPGGSLKLSCTVSGFSLGTFPIGWVRQAPGKGLEWVGIFNTDGSAAYAASVKGRFTVSKNSTKNTVYLHMNSLKTEDTAVYFCARINADYSGWYFGIWGQGTLVTVSS VL: DIQMTQSPSSLSVSVGGRVTITCQASQSIYSYLAWYQQKPGKAPKLLIYEASKTPSGVPSRFNGNGSGTEYTLTISSLQPEDSATYYCQKGYSVSNVAFGGGTEVEIK |
| 100 | 4C2-Candi3 (antibody, V domains shown) VH: EVQLEESGGGLVQPGGSLALSCTVSGFSLGTFPIGWVRQAPGKGLEWVGIFNTDGSAAYAASVKGRFTVSRDSSKNTVYLHMNSLKTEDTAVYFCARINADYSGWYFGIWGQGTLVTVSS VL: DIQMTQSPSSLSASVGGRVTITCQASQSIYSYLAWYQQKPGKAPKLLIYEASKTPSGVPSRFNGNGSGTDFTLTISSLQPEDSATYYCQKGYSVSNVAFGGGTEVEIK |
| 2.38 | 4C2-Candi2 (antibody, V domains shown) VH: EVQLEESGGGLVQPGMSLRLSCTVSGFSLGTFPIGWVRQAPGKGLEWVGIFNTDGSAAYAASVKGRFNVSKNSTKNTVYLHMNSLKTEDTAVYFCARINADYSGWYFGIWGQGTLVTVSS VL: AQQMTQSPSSLSVSVGGRVTITCQASQSIYSYLAWYQQKPGKAPKLLIYEASKTPSGVPSRFNGNGSGTEYTLTISSLQPEDSATYYCQKGYSVSNVAFGGGTEVEIK |
| 3.8 | 4C2-WTH (antibody, V domains shown) VH: QSVEESGGRLVTPGTPLTLTCTVSGFSLGTFPIGWVRQAPGSGLEWIGIFNTDGSAAYASWARGRFTVFKNSTTVDLKMTSPTTEDTATYFCARINADYSGWYFGIWGPGTLVTVSS VL: EMTQTPASVEVAVGGTVTIKCQASQSIYSYLAWYQQKPGQPPKPLIYEASKTPSGVPSRFKGSGSGTEYTLTISGVQCEDAATYYCQKGYSVSNVAFGGGTEVVVK |
